Results from publication PMC10989797, “Mechanistic insights into the key marine dimethylsulfoniopropionate synthesis enzyme DsyB/DSYB” (mLife, 2022).

Assays:
N. denitrificans DsyB [1] = molecular target: T1, N. denitrificans DsyB (Nisaea denitrificans, UniProt A0A979HMS8); assay: X-ray crystal structure of complex; assay type: binding; conditions: DsyB-SAH-MTHB complex; SAM site in C-domain; 1 mM SAH and 1 mM DL-MTHB
T1 construct: full length, 337 residues (Met1-Glu337), C-terminal His-tag (pET22b), E. coli BL21(DE3); initiator Met mostly cleaved; monomer 37,215 Da predicted; homodimer in solution

[2] = molecular target: Nisaea denitrificans DsyB (Nisaea denitrificans DR41_21 (DSM 18348)); assay: native MS; nondenaturing MS of as-isolated DsyB exchanged into 250 mM ammonium acetate, pH 8.0; dimer region also seen with 25 equivalents of SAM
[3] = molecular target: Nisaea denitrificans DsyB (Nisaea denitrificans DR41_21 (DSM 18348)); assay: SEC; gel filtration of DsyB in solution; conalbumin (75,000 Da) and ovalbumin (43,000 Da) as markers
N. denitrificans DsyB [4] = molecular target: T1, N. denitrificans DsyB; assay: X-ray crystal structure of complex; native MS; assay type: binding
[5] = substrate: CSCCC(O)C(=O)O; assay: GC of DMS released from product by alkali; nonlinear fit; assay type: biochemical, Nisaea denitrificans; conditions: 1 mM SAM, 1.97 µM enzyme activated with heat-killed L. aggregata dsyB- lysate fractions, racemic substrate 0-2 mM, 50 mM Tris-HCl, 100 mM NaCl, pH 8.0, 28 °C
[6] = substrate: C[S+](CC[C@H](N)C(=O)O)C[C@H]1O[C@@H](n2cnc3c(N)ncnc32)[C@H](O)[C@@H]1O; assay: cells, lysate or membranes named; conditions: 1 mM DL-MTHB, 0-2 mM SAM, 1.97 µM enzyme activated with heat-killed L. aggregata dsyB- lysate fractions, 50 mM Tris-HCl, 100 mM NaCl, pH 8.0, 28 °C

Nc1ncnc2c1ncn2[C@@H]1O[C@H](CSCC[C@H](N)C(=O)O)[C@@H](O)[C@H]1O [SAH] was tested, and the “X-ray crystal structure of complex” value (N. denitrificans DsyB [1]) was “we solved the crystal structures of complexes of DsyB with SAM and with SAH‐MTHB”.

Work on Nisaea denitrificans DsyB (enzyme) yielded a stoichiometry N [2] of 2 and a stoichiometry N [3] of 2.

For CSCCC(O)C(=O)O (racemic) [MTHB], the “X-ray crystal structure of complex; native MS” value (N. denitrificans DsyB [4]; DsyB-SAH-MTHB complex, poor MTHB density, >6 Å from SAH, presumed initial binding site, 1 mM DL-MTHB) was “the MTHB cosubstrate molecule is located between the C‐domain and the N‐domain”.

In the case of C[S+](CC[C@H](N)C(=O)O)C[C@H]1O[C@@H](n2cnc3c(N)ncnc32)[C@H](O)[C@@H]1O (stereo partly shown) [SAM], the “X-ray crystal structure of complex; native MS” value (N. denitrificans DsyB [4]; DsyB-SAM complex, SAM bound in chains A-C, not D, 1 mM SAM) is reported as “three monomers (Chain A, B, and C) of the asymmetric unit contained SAM molecules”.

B1: N. denitrificans DsyB (Nisaea denitrificans DSM 18348) (protein)
chain: MTLLTNAEEISDIAFGFMGSKALFAALHHGVFTCLADGPLSVEEMAAATGLHPDRVQTLLTALASLGVVSAVEGRFANSPAAESFLVKGAKYDFGDYLRLQVDRQMYGLLDQIEDAIANNLPDDATSSYADWFSDPEQAKLYSNSQHAGSLGPARGLAKLIDLSGGKKLLDVGGGTGAFAITLCKAFADLAATIVDFPNVAALGKGYVEKAGLSDRIEYVIGDALRTEWPREQDAILMSYLFSGVAGDEHDSLLKRAYDHLVPGGRLLIHDFVVTADRTGPKLAALWQLQHTAFTPEARSLDDEWLAEQLKKTGFTDVKVGPMIPGMTMLAEAVRPE
notes: full length, 337 residues (Met1-Glu337), C-terminal His-tag (pET22b), E. coli BL21(DE3); initiator Met mostly cleaved; monomer 37,215 Da predicted; homodimer in solution
B1 was tested, and the Km [5] was 140 ± 20 µM and the Km [6] was 160 ± 2 µM.
